Test results from US11692025 (UNIVERSITY COURT OF THE UNIVERSITY OF ABERDEEN, dated 2023).
Changes are numbered by the printed parent chain. Blank lines part the entries; values can stand above or below the binder they belong to.

Columns and labels:
human serum albumin [1] = target: T1, human serum albumin (human, UniProt P02768 25-609); experiment: BIAcore, mean ± SE
T1 construct: also called HSA; HAS

rat serum albumin [2] = target: T2, rat serum albumin (rat, UniProt P02770 25-608); experiment: BIAcore, mean ± SE
T2 construct: also called RSA

mouse serum albumin [3] = target: T3, mouse serum albumin (mouse, UniProt P07724 25-608); experiment: BIAcore, mean ± SE
T3 construct: also called MSA

CSA = target: T4, CSA (monkey, UniProt A2V9Z4 25-608, limits assumed); experiment: BIAcore, mean ± SE
T4 construct: also called monkey albumin

human serum albumin [4] = target: T1, human serum albumin; experiment: BIAcore
mouse serum albumin [5] = target: T3, mouse serum albumin; experiment: BIAcore
human serum albumin [6] = target: T1, human serum albumin; experiment: BIAcore, pH 6.0, monomeric 6xHis-tagged VNAR
rat serum albumin [7] = target: T2, rat serum albumin; experiment: BIAcore, pH 6.0, monomeric 6xHis-tagged VNAR
mouse serum albumin [8] = target: T3, mouse serum albumin; experiment: BIAcore, pH 6.0, monomeric 6xHis-tagged VNAR
human serum albumin [9] = target: T1, human serum albumin; experiment: BIAcore, pH 7.4, monomeric 6xHis-tagged VNAR
rat serum albumin [10] = target: T2, rat serum albumin; experiment: BIAcore, pH 7.4, monomeric 6xHis-tagged VNAR
mouse serum albumin [11] = target: T3, mouse serum albumin; experiment: BIAcore, pH 7.4, monomeric 6xHis-tagged VNAR
hen egg lysozyme [12] = target: T5, hen egg lysozyme (hen, UniProt P00698 19-147); experiment: BIAcore
T5 construct: also called HEL

hen egg lysozyme [13] = target: T5, hen egg lysozyme; experiment: Biacore, monomeric VNAR
human serum albumin [14] = target: T1, human serum albumin; experiment: phage and periprep ELISA on HSA; purified 6xHis-tagged VNAR
Procedure: The resultant mutational phage display libraries were rescued and selected twice using Nunc Maxisorp immunotubes. Following each pan, two 96-well plates of individual colonies were picked with a QPix2 XT (Genetix, San Jose, Calif., USA). Binding as monoclonal phage and periprep was evaluated by ELISA. All samples were processed with a Perkin Elmer MiniTrak robotic liquid handling system (Waltham, Mass., USA).

T4 sequence (A2V9Z4 25-608 limits assumed): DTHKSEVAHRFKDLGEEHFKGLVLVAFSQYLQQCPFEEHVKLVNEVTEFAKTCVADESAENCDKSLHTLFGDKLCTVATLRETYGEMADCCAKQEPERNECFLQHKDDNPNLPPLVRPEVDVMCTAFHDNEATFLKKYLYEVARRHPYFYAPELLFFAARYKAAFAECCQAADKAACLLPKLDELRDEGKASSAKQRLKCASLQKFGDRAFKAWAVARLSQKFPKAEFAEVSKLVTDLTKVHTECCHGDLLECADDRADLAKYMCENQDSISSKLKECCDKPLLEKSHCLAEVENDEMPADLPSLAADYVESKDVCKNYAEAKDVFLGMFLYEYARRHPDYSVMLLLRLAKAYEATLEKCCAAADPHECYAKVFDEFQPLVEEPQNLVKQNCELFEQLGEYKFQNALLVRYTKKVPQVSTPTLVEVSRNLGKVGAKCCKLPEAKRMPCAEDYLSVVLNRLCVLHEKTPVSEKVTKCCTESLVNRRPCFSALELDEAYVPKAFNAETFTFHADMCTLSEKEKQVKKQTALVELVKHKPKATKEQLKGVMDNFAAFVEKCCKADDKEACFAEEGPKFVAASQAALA
T3 sequence (P07724 25-608 limits assumed): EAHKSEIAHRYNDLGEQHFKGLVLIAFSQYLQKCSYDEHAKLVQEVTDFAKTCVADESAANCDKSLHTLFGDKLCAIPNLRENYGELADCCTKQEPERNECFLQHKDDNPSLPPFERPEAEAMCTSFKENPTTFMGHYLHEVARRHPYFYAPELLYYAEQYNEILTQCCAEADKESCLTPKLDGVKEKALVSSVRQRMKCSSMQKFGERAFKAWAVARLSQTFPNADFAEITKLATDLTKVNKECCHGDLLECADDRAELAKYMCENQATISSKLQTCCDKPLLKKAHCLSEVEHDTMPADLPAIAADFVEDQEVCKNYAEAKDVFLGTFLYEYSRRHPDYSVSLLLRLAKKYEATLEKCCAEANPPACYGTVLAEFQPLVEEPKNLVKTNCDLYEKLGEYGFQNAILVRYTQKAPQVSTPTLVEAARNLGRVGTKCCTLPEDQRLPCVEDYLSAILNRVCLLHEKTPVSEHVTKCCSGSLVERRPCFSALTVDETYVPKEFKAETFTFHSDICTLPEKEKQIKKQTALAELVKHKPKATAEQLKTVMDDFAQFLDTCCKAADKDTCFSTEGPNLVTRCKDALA
T5 sequence (P00698 19-147): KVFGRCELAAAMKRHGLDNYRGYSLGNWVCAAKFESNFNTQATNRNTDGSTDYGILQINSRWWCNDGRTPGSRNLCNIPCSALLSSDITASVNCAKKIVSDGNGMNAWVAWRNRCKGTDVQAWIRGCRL
T2 sequence (P02770 25-608 limits assumed): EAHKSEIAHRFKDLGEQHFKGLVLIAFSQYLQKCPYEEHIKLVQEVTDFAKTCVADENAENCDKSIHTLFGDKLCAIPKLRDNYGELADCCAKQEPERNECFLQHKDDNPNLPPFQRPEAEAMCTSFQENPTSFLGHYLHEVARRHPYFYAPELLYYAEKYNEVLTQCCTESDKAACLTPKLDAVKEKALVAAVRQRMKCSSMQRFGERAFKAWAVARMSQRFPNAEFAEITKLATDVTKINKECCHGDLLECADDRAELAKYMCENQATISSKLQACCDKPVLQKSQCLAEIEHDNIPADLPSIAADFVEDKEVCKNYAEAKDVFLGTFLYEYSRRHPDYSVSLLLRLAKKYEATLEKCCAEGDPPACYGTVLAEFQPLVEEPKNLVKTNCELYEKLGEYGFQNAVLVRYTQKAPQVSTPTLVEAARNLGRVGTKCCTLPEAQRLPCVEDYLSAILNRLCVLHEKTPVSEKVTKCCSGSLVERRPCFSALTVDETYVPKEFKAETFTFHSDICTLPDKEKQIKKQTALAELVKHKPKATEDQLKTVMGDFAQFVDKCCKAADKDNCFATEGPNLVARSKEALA

B2: 5A7-AAA-6xHis (VNAR)
VNAR: ARVDQTPRSVTKETGESLTINCVLRDASYALGSTCWYRKKSGEGNEESISKGGRYVETVNSGSKSFSLRINDLTVEDGGTYRCGLGVAGGYCDYALCSSRYAECGDGTAVTVNA
notes: Type I shark VNAR against hen egg lysozyme, monomeric; also called parental 5A7; anti-HEL 5A7
- binding result (human serum albumin [4]): no binding
- binding result (mouse serum albumin [5]): no binding

B8: BE4 (VNAR)
VNAR: TRVDQSPSSLSASVGDRVTITCVLTDTSYSLYSTYWYRKNPGSSNKEQISISGRYSESVNKGTKSFTLTISSLQPEDFATYYCRAMGTNIWTGDGAGTKVEIK
notes: Variant of huE06 v1.10 from error-prone PCR
- binding result (human serum albumin [14]): binds

B9: BB11 (VNAR)
VNAR: B8 VNAR with S30P, G87A
notes: as for B8
- binding result (human serum albumin [14]): binds

B10: BD12 (VNAR)
VNAR: B8 VNAR with S30P, K64N
notes: as for B8
- binding result (human serum albumin [14]): binds

Next, values leading:

- Kd (human serum albumin [1]): 0.721 nM
- koff (human serum albumin [1]): 0.000641 s⁻¹
- kon (human serum albumin [1]): 953000 M⁻¹ s⁻¹
- Kd (rat serum albumin [2]): 5.95 nM
- koff (rat serum albumin [2]): 0.00344 s⁻¹
- kon (rat serum albumin [2]): 623000 M⁻¹ s⁻¹
- Kd (mouse serum albumin [3]): 2.49 nM
- koff (mouse serum albumin [3]): 0.00214 s⁻¹
- kon (mouse serum albumin [3]): 862000 M⁻¹ s⁻¹
- Kd (CSA): 0.91 nM
- koff (CSA): 0.000682 s⁻¹
- kon (CSA): 820000 M⁻¹ s⁻¹
B1: 2V-E06 (VNAR, part only; not given: naive VNAR 2V and linker, not shown: small tags and cut ends)
chain, part: TRVDQTPRTATRETGESLTINCVLTDTSYPLYSTYWYRKNPGSSNKEQISISGRYVESVNKGTKSFSLRIKDLTVADSATYICRAMGTNIWTGDGAGTVLTVNAAAHHHHHH

- Kd (human serum albumin [1]): 0.189 nM
- koff (human serum albumin [1]): 0.000583 s⁻¹
- kon (human serum albumin [1]): 3.09e+06 M⁻¹ s⁻¹
- Kd (rat serum albumin [2]): 1.34 nM
- koff (rat serum albumin [2]): 0.00301 s⁻¹
- kon (rat serum albumin [2]): 2.24e+06 M⁻¹ s⁻¹
- Kd (mouse serum albumin [3]): 0.74 nM
- koff (mouse serum albumin [3]): 0.00171 s⁻¹
- kon (mouse serum albumin [3]): 2.32e+06 M⁻¹ s⁻¹
- Kd (CSA): 0.219 nM
- koff (CSA): 0.000584 s⁻¹
- kon (CSA): 2.68e+06 M⁻¹ s⁻¹
- Kd (human serum albumin [6]): 0.14 nM
- koff (human serum albumin [6]): 0.00159 s⁻¹
- kon (human serum albumin [6]): 1.12e+07 M⁻¹ s⁻¹
- Kd (rat serum albumin [7]): 0.34 nM
- koff (rat serum albumin [7]): 0.00433 s⁻¹
- kon (rat serum albumin [7]): 1.26e+07 M⁻¹ s⁻¹
- Kd (mouse serum albumin [8]): 0.33 nM
- koff (mouse serum albumin [8]): 0.00323 s⁻¹
- kon (mouse serum albumin [8]): 9.85e+06 M⁻¹ s⁻¹
- Kd (human serum albumin [9]): 0.19 nM
- koff (human serum albumin [9]): 0.000655 s⁻¹
- kon (human serum albumin [9]): 3.48e+06 M⁻¹ s⁻¹
- Kd (rat serum albumin [10]): 1.45 nM
- koff (rat serum albumin [10]): 0.0032 s⁻¹
- kon (rat serum albumin [10]): 2.21e+06 M⁻¹ s⁻¹
- Kd (mouse serum albumin [11]): 0.83 nM
- koff (mouse serum albumin [11]): 0.0018 s⁻¹
- kon (mouse serum albumin [11]): 2.18e+06 M⁻¹ s⁻¹
- binding result (hen egg lysozyme [12]): no binding
B3: E06-AAA-6xHis (VNAR)
VNAR: TRVDQTPRTATRETGESLTINCVLTDTSYPLYSTYWYRKNPGSSNKEQISISGRYVESVNKGTKSFSLRIKDLTVADSATYICRAMGTNIWTGDGAGTVLTVNA
notes: Shark VNAR single domain against serum albumin; also called wild-type E06; monomeric 6xHis-tagged E06

- Kd (hen egg lysozyme [13]): 14.8 nM
- koff (hen egg lysozyme [13]): 0.173 s⁻¹
- kon (hen egg lysozyme [13]): 1.17e+07 M⁻¹ s⁻¹
B4: 5A7IVabc-AAA-6xHis (VNAR)
VNAR: ARVDQSPSSLSASVGDRVTITCVLRDASYALGSTCWYQQKPGKAPKSISKGGRYSESVNSGSKSFTLTISSLQPEDFATYYCGLGVAGGYCDYALCSSRYAECGQGTKVEIKA
notes: Humanized 5A7 VNAR, monomeric; also called humanized 5A7-IVabc

- binding result (human serum albumin [14]): binds
B5: BA11 (VNAR)
VNAR: B8 VNAR with S30P, F78S, G87S
notes: as for B8

- binding result (human serum albumin [14]): binds
B6: BC3 (VNAR)
VNAR: B8 VNAR with S30P, S44N
notes: as for B8

- binding result (human serum albumin [14]): binds
B7: BB10 (VNAR)
VNAR: B8 VNAR with S30P, I90F
notes: as for B8
